The nature of the data set: soluble fraction after stress (log2 fold change); higher = more stays soluble; pooled small domains, quantitative proteomics. Conditions: stress: 50 degC. Put shortly:
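The measure of aggregation propensity here is the base-two logarithm of the fold change in the soluble amount of each protein after stress. A higher value means more of that protein stays in solution. Stress was applied at 50°C to pooled libraries of small protein domains, read out by high-throughput quantitative proteomics.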
“HMEPAPPPAAPPADPELQKRIDKLVEYIGKNGPEFEAVIRDKQHDNPDYAFVFGGEGHAYYRYLLWLLPRP”: the “soluble fraction (log2)” value is 0.00294.

Regarding “HMIQIGEQIRYYRTKIGISQEALALMADINPAYIGQIERGIKSPTVNTIKKIANAMGINLHTLFT”, the “soluble fraction (log2)” value was -2.91.

Consider “HMSPQIDYFDDEELDVYRQIAPEAYTDEQIEVFRDILYTLRPEEVEEWLISLEKREINLPLILRQEAIELI”, for which the “soluble fraction (log2)” value was 0.369.

Regarding “HMVSLNKTEFIAVKKASASELRDKINSLGLDVLKDATISADARTNQIIATGPKYALEQIKMLVVGLDVSS”, the “soluble fraction (log2)” value was found to be 0.0771.

“HMQAITVNNEGKIFLNTIPVTLEELSSKLESLKSSTPEFPVVIRGDSGSQYQGIMDVLNVVGRLGITQIGL”: the “soluble fraction (log2)” value was -0.246.

For “HMITDQQKEQLSSLLKQAEAALAKAAANDQVLAAHKDEAVELLKSTSATSADAADLINELTELLKPYQ”, the “soluble fraction (log2)” value amounted to 0.352.

For “HMTVLTDEIKVILISYIKENDFKKKHGNRKMMMTAQDMYDELVEKGYKISYPTVTQYVQKYRENETT”, the “soluble fraction (log2)” value was -1.27.

Regarding “HMFNIIARQEIDEILYEYKIENSEDYKNRDPEELAEIYENIKTVQENHDLSDDDVEELLKSIFSDY”, the “soluble fraction (log2)” value is -1.02.

For the sequence “HMRSASFDIMSQKQSDATLGYERVYDTETNEVYKAYNGFTDDYDGERYKSISDNMYTKGISGYIEK”, the “soluble fraction (log2)” value is 0.327.

Turning to “HMKQVEVPRLVGLTLREAQAVLGQVGLRIGLISRAALLASPREQIVEQIPVAGERNIATPYVNLLVNVP”, the “soluble fraction (log2)” value is -0.649.

In the case of “HMSAAIGEAVIATDEINVRSGPGLSHEIVSVVSRNESYPILEERGDWVQIQLNGGQKGWVVSWLIKKKS”, the “soluble fraction (log2)” value was determined as 0.169.

Turning to “HMGHTKLVVDIVEELKLEQGALLPILHAIQDELGYVPTKSVPFIADSLNLSRAEVHGVISFYHYFR”, the “soluble fraction (log2)” value was 0.15.

For “HMDEPADVAIFDGFRQMSEDELKKLYESLNLAMTFKDFLHIQNYFKNEENREPSVTEIRVLDTYWSDH”, the “soluble fraction (log2)” value was found to be 0.174.

Turning to “HMQVPDLYRTLGVGRDATTEAIEAAYVGWQARLSAGEPISTQEWERLRYAHEVLSNPQRRSLYDSLVAET”, the “soluble fraction (log2)” value came out at 0.0709.

“HMQTGRREALEAQLRETGGEAMLARLREIDPEAAARLHPADEKRVIRALEVYEETGKTITQHNLETKAVPP”: the “soluble fraction (log2)” value stood at 0.239.

Consider “HMKEEDYEVFMRLINVRGIGPKSALNILGVISGQEMIQAIENDDIKRLKSLPGIGAKTAGQIVLDLKGKFV”, for which the “soluble fraction (log2)” value was -0.649.

Consider “HMESKDIRYVQLQTVSPEEVLQALALIMPRSDVYVEPTGKLVVLHGSKETLDRAEELILALDNAV”, for which the “soluble fraction (log2)” value came out at 0.0118.

Regarding “HMLGARIAALRRQAGMNQGELAKKLGISPSTVGMYEQGRREPSAEMLVRLAEAFSVSTDFLLT”, the “soluble fraction (log2)” value is -4.95e-05.

As to “HMDGYLQLASKKNELITQLKTPPKPKRLFKDFEDRVYLITEYKVFVVSIFQNEFRLRPVNKDDFYRYTT”, the “soluble fraction (log2)” value was 0.207.

“HMADKHVAAALLKLMDHLVGGRQYAFMKGRLTINKKVVLEATEVSAYRRGTGLSDADWQQRYE”: the “soluble fraction (log2)” value was -1.97.

Take “HMRHEDLSPAQKAAALVVAVGSENAAQVLRHLSEEEVEILAGEVARLGEVDPDVVDSVMREVYEQMMGH”: the “soluble fraction (log2)” value was -0.423.

With “HMVTPPMVVVDVQGEVKTPGVYHLPTNSRVNDAIKAAGGPKQSADLSYINQARMVKDGEQIYVEKKL”, the “soluble fraction (log2)” value stood at 0.12.

With “HMQASPADLLSDRELEVFQLTGEWKTTRQIAQELHLSVKTIEYYREQIKRKLNLKSAAELTQHATAWVQRG”, the “soluble fraction (log2)” value is -0.361.

Take “HMEMTGAHLRKKIRAKGFTFQQIADAIGESKQNLSQILSTNNIKTGTLERIAAAMGESVSYF”: the “soluble fraction (log2)” value is -0.191.

For “HMVSRQINVIPDDLAGLRLDQALAHLFPQHSRSRLKEWLLEDIIIVQGGPKRPKDIVSGGEIVEIKL”, the “soluble fraction (log2)” value was -0.0906.

As to “HMSADIGAEKAKTIALNHAGVSASNAVFLHAKLDYDDGRRTYEVEFYSGSKEYDYEIDAATGEILSYDFD”, the “soluble fraction (log2)” value was -0.777.

Regarding “HMIKEYEVLNYVTYEYDEIKKKLEEDFGIIVLMKEAYSDETPAGIIMDQDVEQGRIFKEGATNTITFTVS”, the “soluble fraction (log2)” value was -0.434.

In the case of “HMTDITSAITRLNKYNKSGTPLTIDSVTPEALQTLQAKVSSAFEIGAVNQQTYDDVTKDIATLQQYLSSA”, the “soluble fraction (log2)” value was 0.15.

As for “HMDIIIEEGIDESLSTDDAILDLLGRASDAFSNAQKALLEGDLGSYQKLIEQAERLVKKATELLGENN”, the “soluble fraction (log2)” value is -0.0938.

Consider “HMSDTFTITTESGRIDKIITAHETTHTRSQVQKWLQDGLVTVNGNPVKANFKVTAGDVVTVTIPEVK”, for which the “soluble fraction (log2)” value came to 0.104.

On to “HMTDEEKENLREKMLEAGFPLLKQYGMTHTSVAKITQAAGIAVGTFYSFWKNKEAYMADLIGYHRR”, for which the “soluble fraction (log2)” value is -0.818.

With “HMKNYALHEPMMDRIAKVNALYDAGHTIKYMTARGAVSMVDYYDLTKSQLDSWGAKYHELSVGK”, the “soluble fraction (log2)” value is -0.0372.

On to “HMAESLHVTAAALFEGRAMLGIDGSRRLLRVGETSPEGVKLVSATAREAVIEIDGRRQTLAPGRDT”, for which the “soluble fraction (log2)” value came out at 0.0658.

Turning to “HMNETSRTRALNILGLKATATQEDIKKAYRSLAKEYHPDKLVGVSEGVKKISEEKFREINEAYEYLI”, the “soluble fraction (log2)” value was 0.384.

For the sequence “HMGYSSKISELLTKYNMNASELAQKVGVPPTTIYSIIKRDSKKADIEVLIKIAKLFNVPVEYF”, the “soluble fraction (log2)” value was -0.99.

Regarding “HMEVEADEFQQLLRSGEYVQALDRARANQDIGLRQQQIVQIARHQAASGIQAGAMGSLASLYQF”, the “soluble fraction (log2)” value is 0.0182.

For the sequence “HMNVGKRLKSLREKYKFSLEEVAKKIKSSAGAISRYENNERKINSESLIRLSNLYNVSPEYILYG”, the “soluble fraction (log2)” value worked out at 0.0449.

As for “HMPRSLGADLRAIRKGRRLTLTDMAEALDRSVGWVSQVERDISTPSISDLRRMAEILDVPVSLLFG”, the “soluble fraction (log2)” value was -2.87.

Turning to “HMDGVEVVTKPAGAQIEFAGKSYGPSPVHIPGLVAGSQLILRLPGFQAATVRLRTAPDKSKALEYTLQPA”, the “soluble fraction (log2)” value is -0.0828.

As for “HMATKVNSGVTVRDLAELLGLSSADLIKKLMTMGEMATLTQTLTDDSVKAIADEYDRKIEIVSAAQ”, the “soluble fraction (log2)” value is -0.0488.

Regarding “HMQKEIKVPDVANMALSEAVEKLQNEGFKVADEQKEVSSDEIEEGKVVKTSPVAGTKKTKGSEITIYISSG”, the “soluble fraction (log2)” value is -0.0254.

On to “HMSYKYYSTERPLMPGSFPKPQGNTVLNIENFNDRSYVGKIGREAWGFIEYEKPISPVLLDDYELVAA”, for which the “soluble fraction (log2)” value amounted to 0.0613.

Consider “HMFAERLKELRKMRRFSQHALAERLGISQQAVGKWETGKSTPDPATLREIADIFEVSVDLLLGR”, for which the “soluble fraction (log2)” value was -0.247.

Consider “HMDEYILTLDEVKELLKSKDYDDLKNVLKWSNKFQKDTIIQTAISEKVSDANVINIIKEITGQDITSLIV”, for which the “soluble fraction (log2)” value was 0.0322.

“HMRQMIIIMQKQAAASSVAAVVEFIRSKGLREHISPGAERTIIGAVGDERVFLPQELESLPQVERAIRVL”: the “soluble fraction (log2)” value was -1.14.

On to “HMNVESMVGKQGKVVVEIDNISAKGMIKVDGMEWTARSVDGEIIPKDSLVAVVSVEGVKAMVRKAE”, for which the “soluble fraction (log2)” value was found to be 0.163.

Take “HMIRDVDYNTFVSMVQEGKVGQVEIQEQNNRILFTDKDERTVYKTAMVPDSDLISRLLEAGVSTS”: the “soluble fraction (log2)” value was 0.204.

For “HMKPSVEIKVNGGTGAGVVKKGGSITVTANEPAEGKVFTGWQDESGKIVSTQKEYTFTVAEGTTLTAVYED”, the “soluble fraction (log2)” value was 0.45.

“HMITTWAGKATTDVYGRVDANPKADAVLVIKTGWTVQVVGSKTAPDGGTWYKLIYNGKTMYANSKFIVK”: the “soluble fraction (log2)” value was -1.16.

As for “HMQTASVRFADGQLEVKQKGLQRVSVYSLNGMTVANKAVQGQDYVTISLPRAAYIVKITTQNGSFTKVI”, the “soluble fraction (log2)” value is -0.207.

As to “HMSGTYIATVEAGSLDIYKSMTSNETIGKASRGDVFQILEDMGSGYARVSYNDVEGYMSIKTGDASIEEL”, the “soluble fraction (log2)” value was -0.203.

Turning to “HMRRKDIEFTNTMLEELYRHNSKWYDAVVRAYALEIPQKQIAEEMGIRLEAFQSMLFRAKKWIKTKYEADY”, the “soluble fraction (log2)” value is -2.51.

As for “HMPWLIAVTVDGVNLPRFLRRAGEMGLLLTGVRIRGKHLSAFAREDDVPPLRMMAENGGWRFSVGN”, the “soluble fraction (log2)” value is -1.61.

“HMTVLDYNENVLSKVMNAAEINDSDKEAFIAFAKDYNSDDNLYLKKEELETAAGAWNARNVE”: the “soluble fraction (log2)” value was found to be 0.358.

With “HMGIIQAQIPGLVSRLFVKKGDKVAVNQRLFILEAMKMENEIDSPIQGMVEKIHITTGSKVEKGDLIMEIV”, the “soluble fraction (log2)” value was -0.323.

On to “HMQDIDIVDLKRISELIYQKYNYDFRNYAMSSFKRRVQRIIELKKLTVDGLIKRLNDTPSFINEFLDELTV”, for which the “soluble fraction (log2)” value was -0.139.

As to “HMRIVSGRESMLGRTVVVADWAGERGHVVVDGERWNAVASTPLAAGRRARIVGIDGLTLSVSPDDKP”, the “soluble fraction (log2)” value came out at 0.216.

Regarding “HMAMLSKREAEILKLTAKGHSSTDIAQRLTISVNTVEFHRRRIMQKLNAANVAEAVGKAAELGLFF”, the “soluble fraction (log2)” value is -0.438.

“HMSAHDLQVVLRWIGTDEPMTDQRYRITTEDGRTFEGRTDDAGLTERVASTIPFGRYSIEALD”: the “soluble fraction (log2)” value is -0.441.

In the case of “HMLKVHPRDQEENRLLLLKGERLYEESTGDTRVMIDMWLRKFEEALNSRSRENIEDARRELKEQLAELDN”, the “soluble fraction (log2)” value was -0.00144.

On to “HMYQPLRDVIFETLRKAIVSGDIKPGERLMEVSLANQMGVSRTPVREAIRRLEAEGLVTMTPRKGTHVAE”, for which the “soluble fraction (log2)” value is -0.399.

On to “HMHGESIPIPNILHKRYADAEQIVNNLRLEIEVTDTGYVRSLPPGAILEQTPGPGERVKSGHIIYVTINAA”, for which the “soluble fraction (log2)” value was -0.291.

As for “HMETLTPQEHKVLLLAVKGRTNGEIASELGIAQNTVKNHLAHIYAKMGVGNRTELASEYLRRIH”, the “soluble fraction (log2)” value is 0.0726.

Consider “HMVTARMPDLFGLDEATAQRMVSNAGLTLKTEYAYSDQAEGYVFDQTPEANAEVRRGGTVTAMIS”, for which the “soluble fraction (log2)” value came to 0.0381.

“HMSKSIEEIYDEAIRSLANEEYDSAKKLFSYLIDNFSDPEKLPLSLFWLGEIEFSSSNFDQSKIHYIE”: the “soluble fraction (log2)” value is -0.0445.

On to “HMASELQQVQALLESQRYNEALILIETTIGKGASESTELLFARADVFASSGRHDEAEQAYREL”, for which the “soluble fraction (log2)” value was -0.0838.

In the case of “HMEYFDDEELDRYKGRTSDSFTDDEAEEFREVMMTMHPEEVKAWNRSLILRDVAMPDQIKDDYIMLAG”, the “soluble fraction (log2)” value was -0.0408.

Turning to “HMNLSDIETWLRELSLEKYALAFSEAEIDFETLPELTEDDLKEVGLPVGPRRKVWGAIQLLRTTD”, the “soluble fraction (log2)” value was -1.42.

For the origin of these results see the domain aggregation screens of Martell et al. (2025).
